According to patent US20190218553:

Target: von Willebrand factor (VWF) (Homo sapiens) (UniProt P04275)
Test: filter
Conditions: mAmCmGmAmAmCmUmGfCfCfCmUmC(6GLY)mGmAfCrGfCmAmCmAmGmAmCmGfUidT (6GLY = hexaethylene glycol linker); Bmax 60%; 2 mM CaCl2, 37 C

**Q.** With ACGAACUGCCCUCGACGCACAGACGU [DTRI-009] as the sequence, how does the Kd read?
**A.** 11 nM
